This series concerns the target Dlx3-HD (human, UniProt O60479 129-188). Briefly: NMR (1H/15N-HSQC CSP and imino proton titration); 100 mM NaCl, 35 C; slow exchange; 10 mM sodium phosphate pH 6.0, 100, 250 or 500 mM NaCl, 90% H2O/10% D2O, 35 C. The conditions noted are these: protein: recombinant; tags: Ni-NTA purified (His-tag implied); blunt.

Sequence of Dlx3-HD (O60479 129-188): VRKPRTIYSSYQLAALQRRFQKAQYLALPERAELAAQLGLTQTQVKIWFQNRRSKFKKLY

B1: dlxDNA (dsDNA)
DNA 1: CGTAATTGCC
DNA 2: GGCAATTACG
As to B1, the binding result is listed as “binds”.

Source of the values: paper PMC9409194, “Salt Dependence of DNA Binding Activity of Human Transcription Factor Dlx3”.
